Data from the RNAGym collection of RNA variant scans (doi:10.1073/pnas.2313332121).

B1: TPR t1 (parent)
chain: GACCAAUCUGCCCUCAGAGCUCGAGAACAUCUUCGGAUGCAGAGGAGGCAGGCUUCGGUGGCGCGAUAGCGCCAACGUCCUCAACCUCCAAUGCAUCCCACCACAUGAUGAUGCCUGAAGAGCCUUGGUUUUUUG

Variants of: B1
Test: polymerase ribozyme fitness, log enrichment relative to wild type (log ratio); higher = more active; in vitro selection for triplet polymerase activity
Summary of the method: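 Mutant libraries were PCR-built and transcribed for each subunit of a heterodimeric triplet polymerase ribozyme and selected for one round in triplicate at −7 °C, frozen, before gel excision of extended constructs and streptavidin-bead capture. Input and output libraries were Illumina-sequenced, keeping genotypes with ≥10 input reads and ≥1 read per output. Fitness is a logarithmic ratio of genotype to wild-type enrichment, in base 2, using inverse-variance-weighted replicate averages.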

Row | Variant | polymerase ribozyme fitness (log ratio)
1 | GACCAAUUUGCCAUCAGAGAUCGAGAACAUCUUCGGAUGCAGAGGAGGCAGGCUUCGGAGGCGCGAUAGCGCCAACGUCCUCAACCUCCAAUGCAUCCCACCACAUGAUGAUACCUGAAGAGGCUUGGUUUUUUG [C8U C13A C20A U59A G113A C123G] | -1.9
2 | GACCAAUUUGCCUUCAGAGCUCGAGAACAUCUUCGGAUGCAGAGGCGGCAGGCUUCGGAGGCGCGAUAGCUCCAACGUGCUCGACCUCCAAUGCAUCCCACCACAUGAGGAUGCCUGAAGAGCCUUGGUUUAUUG [C8U C13U A46C U59A G71U C79G A83G U109G U132A] | -7.26
3 | GACCAAUUUGCGCUCACAGCUCGAGAACAUCUUCGGAUGCAGAGGAGGCAGGCUUCGGUGGCGCGAUAGCGCCAACGUCUUCAACCUCCUAUGCAUCCCACCACAUGAUGAUGCCUGAAGAGCCUUGGUUUUUUG [C8U C12G G17C C80U A90U] | -2.49
4 | GACCAAUUUGGCCUCAGAGCUCGAGAACAUCUUCGGAUGCAGAGGAGCCAGGCUUUGGUGGCGUGAUAGCGCCAACGUCCUCAACCUCUAAUGCAUCCCACCACAUGAUGAUGCCUUAAGAGCCUUGGUUUUUUG [C8U C11G G48C C56U C64U C89U G117U] | -5.48
5 | GACCAAUUUGUCCUCAGAGCUCGAGAACAUCUUCGGAUGCGGAGCAGUCAGGCUUCGGUGGCGCGAUAGCGCUAACGUCCUCAACCUCCAAUGCAUCCCACCACAUGAUGAUGCCUGAAGAGCAUUGAUUUUUUG [C8U C11U A41G G45C G48U C73U C124A G128A] | -5.7
6 | GACCAAUUUGCCCUCAGAGCUGGAGAACAUCUUCGGAUGCAGAGGAGGCAGGCUUCCGUGGCGCGAUAGCGCCAACGUCCUCAACCUCAAAUGCGUCCCACCACAUGAUGUUGCCUGAAGUGCCUUGGUUUUUUG [C8U C22G G57C C89A A95G A111U A121U] | -3.38
7 | GACCAAUUUGCCGUCAGAGCUCGAGAACUUCUUCGGAUGCAGAGGAGGCAGGCUUCGGUGGCGCGAUAGCGCCAACGUCCUCAACCUCCAAUGCAUCCCACCACAUGAUGAUGCCUGAAGAACCUUGGUUUUUUG [C8U C13G A29U G122A] | -2.49
8 | GACCAAUUUGCCCUCAGAGCUGGAGAACAUCUUCGGAUGCAGAGGAGGCAGGCUUCGGUGGCGCGAUAGCGCCAACGUCCUCAACCUCCAAUGCAUCCCACCAGAUGAUGAUGCCUAAAGAGCCGUGGUUUUUUG [C8U C22G C104G G117A U125G] | -4.71
9 | GACCAAUUUGCCGUCAGAGCUCGAGCACAUCUUCGGAUGCAGAGGAGGCAGGCUUCGGUGGCGCGAUAGCGCCCACGUCCUCAACCUCCAAUGCAUCCCACCACAUGAUGAUGCCUGAAGAGCCUUGGUUUUUUG [C8U C13G A26C A74C] | -6.04
10 | GACCAAUUUGCCCUCAGAGCUAGAGAACAUCUUCGGAUGCAGAGGAGGCAGGCUUCGGUGGCUCGAUAGCGCCAACGUCCCCAACCUCCAAUGCAUCCCACCACGUGAUGAUGCCUGAAGAGCCUUGGUUUUUUG [C8U C22A G63U U81C A105G] | -7.76
11 | GACCAAUUUGUCCUCAGAGCUCGAGAACAUCUUCGGAGGCAGGGGAGGCAGGCUUCGGUGGCGCGAUAGCGCCAACGUCCUCAACCUCCAAUGCAUCCCACCAUAUGAUGAUGCCUGAAGAGCCUUGGUUUUUUG [C8U C11U U38G A43G C104U] | -2.94
12 | GACCAAUUUGUCCUCAGAGCUCGAGAACAUCUUCGGAUGCAGAGGAGGCAGGCUUCGGUGGCGCGAUAGCGCCAACGUCCUCAACCUCCAAUGCAUCCCACCACAUGAUGAUGCCUGAAGAGCCUUGGUUUUUUG [C8U C11U] | -0.675
13 | GACCAAUUUGCCCUGUGAGCUCGAGAACAUCUUCGGAUGCAGAGGAGGCAGGCUUCGGUGGCGCGAUAGUGCCAACGUCCUCAACCUCCAAUGCAUCCCACCACAUGAUGAUGCCUGCAAAGCUUUGGUUUUUUG [C8U C15G A16U C70U A118C G120A C124U] | -2.69
14 | GACCAAUUUGGCCUCAGAGCUCGAGAACAUCUUCGGAUGCAGAGGAGGCAGGCUUCGGUGGCGCGAUAGUGCCAACGUCCUCAACCUCCAAUACAUCCCACCACAUGAUGAUGCCUGAAGAGCCUUGGUUUUUUG [C8U C11G C70U G93A] | 0.0777
15 | GACCAAUUUGCCCUUAGAGCUCGAGAACAUCUUCGGAUGCAGAGCAGGCUGGCUUCGGUGGCGCGAUAGCGCCAACGUCCUCAACCUCCAAUGCAUCCCACCACAUGAUGAUGCCUGAAGAGCCUUGGUUUUUUG [C8U C15U G45C A50U] | -1.64
16 | GACCAAUUUGUCCUCAGAACUCGAGAACAUCUUCGGAUGCAGAGGAGGCAGGCUUCGGUGGCGCGAUAGCGCACACGUCCUCAACAUCCAAUGCAUCCCACCACAUGAUGAUGCCUGAAGAGCCUUGGUUUUUUG [C8U C11U G19A C73A A74C C86A] | -3.7
17 | GACCAAUUUGCACUCAGAGCUCGAGAACAUCUUCGGAUGCAGAGAAGGCAGGCUUAGGUGGCGCGAUAGCGCCAACGUCCUCAACCUCCAAUGCAUCCCACCACAUGAUGAUGCCUGAAGAGCCUUGGUUUUUUG [C8U C12A G45A C56A] | 0.0537
18 | GACCAAUUUGCUCUCAGAGCUCGAGAACAUCUUCGGAUGCAGAGGAGGCAGGCUUCGGUGGCGCGAUAGCGCCAACGUCCUCAACCUGCAAUGCAUCCCACCACAUGAUGAUGCCUGAAGAGCCUUGGUUUUUUG [C8U C12U C88G] | -0.238
19 | GACCAAUUUGUCCUCAGAGCUCGAGAACAUCUUCGGAUGCAGAGGAGGCAGGCUUCGGUGGCGCGAUAGCGCCAACGUCCUCAACCUCCAAUUCAUCCCACCACAUGAUGAUGCCUGAAGAGCCUUGGUUUUUUG [C8U C11U G93U] | -1.31
20 | GACCAAUUUGCCAUCAGAGAUCGAGAACAUCUUCGGAUGCAGAGGAGGCAGGCUUCGGUGGCGCGAUAGCGCCAACGUCCUCAACCUCCAAUGCAUCCCACCACAUGAUGAUACCUGAAGAGGCUUGGUUUUUUG [C8U C13A C20A G113A C123G] | -1.33
21 | GACCAAUUUGCCCUCAGAGGUCGAGAACAUCUUCGGAUGCAGAGGAGGCAGGCUUCGGUGGCGCGAUAGCGCCAACGUCCUCAACCUCCAAUGCAUCCCACCACAUGAUGCUGCCUGAAGAGACUUGGUUUUUUG [C8U C20G A111C C123A] | -5.26
